This passage reports Kd results from publication PMC11390681.

In this data set the test system is F4 (K88) fimbriae on intact ETEC strain SP11 cells (Escherichia coli (ETEC-F4+, strain SP11)). As to the kind of experiment: whole-cell binding with qPCR quantification of eluted aptamer. The conditions noted are these: 138 mM NaCl, 20 mM Tris-HCl pH 7.4, 2.7 mM KCl, 1 mM CaCl2, 0.5 mM MgCl2, 0.1 mg/mL salmon sperm DNA, 30 min at 37 C, 500 rpm, washes with 0.05% Tween 20. A general note: Quantitative PCR measures a nucleic acid by following its amplification.

What is called Kd is a measure of binding affinity in units of concentration.

“CGTACGGTCGACGCTAGCACACTCTTTTGCTCGTGTTTTTGCCTGTTACATAAAATGAATCAGTGGATGTTTCCTTCTCACGTGGAGCTCGGATCC [Apt31]” returned a Kd (intact SP11 cells, about 10^8 CFU/mL, 1 mM CaCl2, 0.5 mM MgCl2) of 81.8 nM. With “CGTACGGTCGACGCTAGCGGAGACCGTACCATCTGTTCGTGGAAGCGCTTTGCTCGTCCATTAGCCTTGTGCTCGTGCCACGTGGAGCTCGGATCC [Apt37]”, the Kd turned out to be 50.8 nM.
